The results in this text go back to patent US20150231240A1, “ANTI-C16ORF54 ANTIBODIES AND METHODS OF USE THEREOF” (priority 2012, published 2015).

The target of assay [1] is T1, human C16orf54 (human, UniProt Q6UWD8 1-224).
T1 construct: also called huC16orf54; hC16orf54
T1 sequence: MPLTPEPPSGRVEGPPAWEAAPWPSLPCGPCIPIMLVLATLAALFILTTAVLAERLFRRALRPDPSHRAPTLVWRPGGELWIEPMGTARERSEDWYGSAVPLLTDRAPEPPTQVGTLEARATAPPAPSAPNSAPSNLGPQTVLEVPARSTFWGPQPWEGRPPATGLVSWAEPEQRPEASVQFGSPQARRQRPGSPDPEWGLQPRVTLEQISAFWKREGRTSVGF
As to the kind of experiment: flow cytometry titration, KG1 cells (endogenous human C16orf54).

Assay [2] deals with T2, cynomolgus monkey C16orf54 (cynomolgus monkey (Macaca fascicularis), UniProt Q6UWD8 1-224 (human entry)).
T2 construct: also called cyno C16orf54; cyno-C16orf54
T2 chain: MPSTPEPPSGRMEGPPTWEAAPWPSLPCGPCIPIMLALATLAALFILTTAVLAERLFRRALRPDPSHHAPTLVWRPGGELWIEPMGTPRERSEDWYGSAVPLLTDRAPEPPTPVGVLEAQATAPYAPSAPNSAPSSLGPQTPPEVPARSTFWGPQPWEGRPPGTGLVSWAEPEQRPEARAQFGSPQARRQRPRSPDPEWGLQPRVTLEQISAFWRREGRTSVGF
As to the kind of experiment: flow cytometry titration, F279-cyno-C16orf54 cells. The procedure:
Anti-C16orf54 antibodies which bound to human C16orf54 were tested for their binding to cells expressing human C16orf54 and cells expressing cyno C16orf54. […] Median fluorescence intensities for each primary antibody concentration were used to derive a flow EC50/Kd using the one site-specific binding with Hill slope model in Prism (GraphPad Prism® Software). Results are shown as flow EC50 in Table 35.

In assay [3] the target is T3, N-terminal 32 amino acids of huC16orf54 coupled to biotin (human, biotin at the C-terminus).
T3 construct: also called 32 amino acid N-terminal extracellular domain
T3 peptide: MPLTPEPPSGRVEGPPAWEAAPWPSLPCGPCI
Briefly: biolayer interferometry (OctetQK384), purified antibody on streptavidin sensors coated with the biotinylated peptide. The procedure:
Affinity measurements of purified anti-huC16orf54 antibodies were carried out on the OctetQK384® sytem (ForteBio). After coating streptavidin sensors with the N-terminal 32 amino acids of huC16orf54 coupled to biotin at the C-terminus, association and dissociation of purified anti-huC16orf54 antibodies was monitored. KD values were derived using ForteBio's software.

In assay [4] the target is T1, human C16orf54. As to the kind of experiment: flow cytometry, HEL92.1.7 leukemia cells (endogenous C16orf54), 3 repeats.
Assay [5] addresses T1, human C16orf54. As to the kind of experiment: flow cytometry, REH leukemia cells (endogenous C16orf54), 3 repeats.
In assay [6] the target is T3, N-terminal 32 amino acids of huC16orf54 …. Briefly: biolayer interferometry (OctetQK384), hybridoma supernatant on streptavidin sensors coated with the biotinylated peptide. The procedure: Eight anti-huC16orf54 monoclonal antibodies were further screened for binding and subsequent off-rate analysis using the OctetQK384® sytem (ForteBio). Hybridoma supernatants were screened for association to and dissocation from streptavidin sensors coated with the N-terminal 32 amino acids of huC16orf54 coupled to biotin, and the calculated offrates (kdis) are shown in Table 31. Cloned hybridomas with […] off-rates were carried forward for antibody purification.

In assay [7] the target is T1, human C16orf54. Briefly: flow cytometry, WSU-DLCL2 lymphoma cells (endogenous C16orf54), 1 repeat.
In assay [8] the target is T1, human C16orf54. Briefly: flow cytometry, OCI-AML3 leukemia cells (endogenous C16orf54), 3 repeats.
The target in assay [9] is T4, C16orf54 on peripheral blood and bone marrow mononuclear cells (Homo sapiens, UniProt Q6UWD8).
T4 construct: endogenous in cells; host or cells: PBMC and BMMC from healthy donors
T4 sequence (Q6UWD8 1-224): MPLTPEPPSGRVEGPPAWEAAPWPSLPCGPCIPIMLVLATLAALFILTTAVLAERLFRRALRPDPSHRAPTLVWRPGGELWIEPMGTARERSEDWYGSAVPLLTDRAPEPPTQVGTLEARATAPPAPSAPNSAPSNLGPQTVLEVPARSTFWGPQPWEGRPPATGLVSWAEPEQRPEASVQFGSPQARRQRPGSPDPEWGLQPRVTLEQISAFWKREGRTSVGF
As to the kind of experiment: Flow cytometry of PBMC and BMMC from healthy donors. The format is binding. The procedure: Anti-C16orf54 antibodies were tested for their binding to various cell lines and primary samples (e.g., AML, CLL, lymphoma) using flow cytometry. Copy number of C16orf54 on the various cell lines was determined. Peripheral blood mononuclear (PBMC) and bone marrow mononuclear (BMMC) cells from healthy donors were immunofluorescently stained using the antibodies of CD19, CD3, CD14, CD34, CD33, lineage markers, in addition to an anti-C16orf54 antibody and isotype control antibody, and then evaluated by flow cytometric analysis. […] In single lineage gated populations, C16orf54 is broadly expressed in CD19+ B cells, CD14+ monocytes, CD34+/lineage—progenitor cells and CD33+ myeloid cells, whereas CD3+ T cells have a distinctively low to undetectable level of C16orf54.

B1: R29-7-1C (antibody, V domains shown)
VH: DVQLQESGPGLVKPSQSLSLTCTVTGYSITSDYAWNWIRQFPGNKLEWMGYISYSGSIRYNPSLKSRISITRDTSKNQFFLQLNSVTTEDTATYYCAREKYDNYYYAMDYWGQGTSVTVSS
VL: DIVMSQSPSSLAVSVGEKVTLSCKSSQNLLYSTNQKNYLAWYQQKPGQSPKLLIYWASTRESGVPDRFTGSGSGTDFTLTISSVKAEDLAVYYCQQYYSYRTFGGGTKLEIK
notes: Murine monoclonal IgG2a from a hybridoma
B1: the EC50 with human C16orf54 [1] stood at 0.3 nM; in [2], 2.7 nM. The molecule also showed a dissociation constant Kd in assay [3] of 1.1 nM. For the same molecule, the koff in assay [3] stood at 7.95e-05 s⁻¹; in [6] it was 0.0102 s⁻¹. In addition, the kon in [3] was determined as 68100 M⁻¹ s⁻¹. Further, the “Average MFI fold change relative to isotype control” value was 5 fold with human C16orf54 [4], 6.4 fold with human C16orf54 [5], 9.2 fold in the assay with human C16orf54 [7] and 3 fold with human C16orf54 [8].

B2: R29-7-1C: murine anti-C16orf54 monoclonal antibody, IgG2a; VH SEQ ID NO: 8, VL SEQ ID NO: 10 (antibody, V domains shown)
VH: MRVLILLWLFTAFPGILSDVQLQESGPGLVKPSQSLSLTCTVTGYSITSDYAWNWIRQFPGNKLEWMGYISYSGSIRYNPSLKSRISITRDTSKNQFFLQLNSVTTEDTATYYCAREKYDNYYYAMDYWGQGTSVTVSS
VL: MDSQAQVLMLLLLWVSGTCGDIVMSQSPSSLAVSVGEKVTLSCKSSQNLLYSTNQKNYLAWYQQKPGQSPKLLIYWASTRESGVPDRFTGSGSGTDFTLTISSVKAEDLAVYYCQQYYSYRTFGGGTKLEIK
modifications: R29-7-1C heavy chain variable region; R29-7-1C light chain variable region
In the case of B2, in assay [9], the “staining of PBMC and BMMC from healthy donors (C16orf54 expression)” value is “low but positive expression of C16orf54 with slightly higher level in BMMCs”.
